# B1: fTfR-5J8 (Flag+) mutant D100bL (scFv, V domains shown)
# VH: EVQLVESGPGLVKPSDILSLTCAVSGYSISSNYYWGWIRQPPGKGLEWIGSIYHSGSTYYKPSLESRLGISVDTSKNQFSLKLSFVSAADTAVYYCARHVRSGYPLTAYYFDKWGQGTLVTVSS
# VL: SYVLTQPPSVSVAPGETARISCGGNNIGTKVLHWYQQTPGQAPVLVVYDDSDRPSGIPERFSGSNSGNTATLTISRVEVGDEADYYCQVWDISTDQAVFGGGTKLTVL
# notes: also called D100bLeu
# Molecular target: T1, HA-hFc probe: H1N1 A/California/04/2009 HA ectodomain fused to human IgG1 Fc (Influenza A virus A/California/04/2009 …, UniProt C3W5S1)
# T1 construct: also called HA-probe; HA-human Fc probe; source: High Five insect cells (recombinant baculovirus), purified (HiTrap Protein G); not shown: Fc (human IgG1), C-terminal, kept
# Assay: flow cytometry on cells
# Conditions: one partner purified
binder,measurement,value
B1,binding result,binds
